Assay: soluble on expression in E. coli; label from the status in PepcDB or PDB records

| Sequence | soluble on expression in E. coli |
| --- | --- |
| MSLPGSSNRPLPSSNDEFHYEDIELPSGYRSEGEVVDLLNPKDELEEPLFSEEPLFPVTTSIPTKTAVSKPKIAPTSAAKDVTFSSSIDSDDCSVAYDNSKPVRQYVLMIDAGSTGSRVHVYQFNNCNPSPKLEEEFFKMIEPGLSSFAGDPEGAAASLDPLLDYAMENVPEEYRRCSPIAVKATAGLRLTGESEAKAILKSVRQHLENDYPFPIVKDGVSILEGSMEGIYAWITINYLLGTLGGKATHSTVAVMDLGGASTQLVFEPRFASDGESLVDGDHKYVLDYNGEQYELYQHSHLGYGLKEARKLIHKFVLNNAEALKESLELLGDSTSIIHPCLHLNASLTHPDSKSEASEVVFVGPSLAHLSLQCRGIAEKALYKDKNCPVRPCSFNGVHQPKFTETFTDSPIYLISYFYDRMISLGMPSTFTIEDMKYLANSVCSGPTYWQDAFSLTDALKELKEEPEWCLDLNYMISLLSVGYEIPNNRQLHTAKKIDNKELGWCLGASLSMLSEQNNGWNCNVKEEIEGHHHHHH | not soluble |
| MGSDKIHHHHHHMSSINYAEKIPNNVNLSEDRKLQRALESWQPHYIDWWKEMGPEGTSTSEIYLRTAISAEPDGWAQFGHVKMEDYRWGIFLAPPEKDRKVNFGAHKGEAAWQEVPGEYRSMLRRLITVQGDTEPASVEQQRLLGKCCPSLYDLRNLFQVNVEEGRHLWAMVYLLHAHFGKDGREEAEEMLARRSGDADKPRILGAFNEKTADWLAFFMFTFITDRDGKYQLCALAESGFDPLSRSCRFMLTEEAHHMFVGESGVGRIIERACQVMKENRTDDVRKFGVIDLPTIQRYLNFHYSVTSDLYGAEVSTNAATSYNMGIKGRYEETKIGDDHQLENTTYSVLHPVNGGFQAIEVPALNALNERLRLDWAEDVAKGVERWNKIIAKHGIDFKLTLPHLAFNRAIGHFSDIAVDPSGKVISTEEFARRRDEWLPSESDLAYVLSLMGSAVTKPGQFANWIAPPARGINNQAVDFDYVRFA | not soluble |
| MSLSETTQTSQSLYQALWNSADVLRSKMDANDYKSYLLGMVFYKYLSDKMLFFVAETMEEETESLDEALAVYRKYYEDEETHEDLLAVITDEMSYAIHPDLTFTALVERVNDGSFQLEDLAQGFRDIEQSDELYENLFEDIDLYSKKLGATPQKQNQTVAAVMKELAVLDVAGHAGDMLGDAYEYLIGQFATDSGKKAGEFYTPQPVAKLMTQIAFLGREDKQGFTLYDATMGSGSLLLNAKRYSRQPQTVVYFGQELNTSTYNLARMNMILHGVPIENQFLHNADTLDEDWPTQEPTNFDGVLMNPPYSAKWSASSGFMDDPRFSPFGKLAPKSKADFAFLLHGYYHLKQDNGVMAIVLPHGVLFRGNAEGTIRKALLEEGAIDTVIGLPANIFFNTSIPTTVIILKKNRTNRDVYFIDASKEFDKGKNQNIMTDAHIEKILNAYKSREDIDKFAHLASFEEIVENDYNLNIPRYVDTFEEEEVEPLTEIVAKINQTNATIESQTASLLDMLGQLHGTTPEADEELKAFVKAFKGEGHHHHHH | soluble |
| MNLFEYKLSVVRQVMDKYEVAEEAKFISGLSKGSMVNALSRKKKLPNKEAKFTRYVIYTVDVERIIDMMEEPYRTVIKKRYYDASLDTVKKDFGLQNKREAYFLVKKSVNKFYDLLENYWK | not soluble |
| MSEENRVGSKIRQLREARDMTVEELAEASQSSSELIQQLENGALVPSLTPLLKIARALGVRLGTFLDDMPQSGPVLVRSGLSENVVRFSGKTERPKKSALEFYSLASDKADRHMEPFIIDIHPSPEESHTLSSHEGEEFIYVLSGEIEIFYGKDVHRLSEGDSIYYDSIVPHDVHAAGKEDARIMAVVYAPL | not soluble |
| MKFSVLMSLYIKENPQFLRECFESLVAQTRQADEIVLVFDGVVTPDLEFVVTEFETKLPLKLVKLPQNRGLGKALNEGLLHCDYDWVFRMDTDDICVPDRFEKQVAFIEQHPESIIFGGQIAEFGKNVNDIVAYRNVPTSAQEIIKFTQKRCPFNHMTVAYQKSAVINCGGYEDLQEDYYLWIKLVAQGLYMANLPDILVYARVGNGMVSRRRGVNQAKAEWRLFKLKYRLGIQGLLSGLFTFALRFGSRLLPTSLLKKLYQTFLRK | soluble |
| MGSDKIHHHHHHMRIAAYENFITKLLMNNKCMDINEIDKYILRTTSNNYNLVKKQLDRTNKLLEERYERYGCLTEEDNVEALKKGYYDLGKIGLTLEEIRKKIAKFQIDKESPMGIQIEKDWNFATFLLQDLLQLENMNLITYSRLLEERLSELSKNKTNKKTYNKPNNKETTIKTNSPTTNSSDIMTIDEICALLHLSKSKIYHMACAHEIPHHKLNPSKKGRLYFFRSEIEEWLRNKRIRTVDEFLLQFEN | not soluble |
| MGSVSTGNAGSGTVGTSTTSRADVMTFQPSSLPVSYVGETYNVQVGVTGGVGPYGYRLTAGTLPPGLKFAGGALSGTPTKAGSYSFAIQATDANLSTRVQEYTMNVDALPPLALKPTLPPGEIRGETRIPVTIQAPRAVRAARLSWDLGKDVQVTRVQPADAGSVVFWQQRGSVLTVDLGFRTVPRPDARIALITVKPAKAVTLKADALGYEARDGSGKMLVDKKRPGSEPVKPAEQPGDPKVDPKAADQKATDQKATDPKTVDPKTVTPADTVEGGPLPSPALPTPSLPPTLPPVTTPPANTPPVPTPTPPANQPAPAPAPQPAPAPQPTPPSGTGGALEHHHHHH | not soluble |
| MKILVIGGPTAIGKSDLACCVAQKLNGEIISADSMAVYKFMDIGTAKPLECMKKVPHHLIDVVEPGGYFDAKIFEEMAKEKIEEIKRKGKVPIVVGGTYLYIQALLYGIDETPKPDWNLRNKLYEIARKKGNDYLYEKLKAIDPKYAKKIHKNDLRRIVRALEVFINTGKPFSSFHSWNKPKMDFVGIYLKRSPESLYKRIENRVYDMVKDGLLEEVKKLLEMGYENFLTSGQAIDYKEFVPCAKGEKSLEECIKEAIKNTKKQAKRQIRWFRKQGWHEIDLDKLSIEEACEEVVRIYKDANKTKLEHHHHHH | not soluble |
| MIVRSYLYEKLNGDVRCKTCWHRCIIKEGKTGICRVRKNEGGELLVLNYGMASSIALDPIEKKPLNNFKPGSKVLSFGSVSCNFRCLHCQNFEIAFADLDYSYLREIDPDTVLRMCIDRRADGVAWTYNEPAIWHEFALDSSKLVKESGYYVVYVTNGYMTPEAVDQFEGVLDAANVDVKAFSEDFYKKICKAKLEHVLETVEYLHRKGVFVELTYLIIPGENDSREELRDFCRWVADLSPKIPVHFSRFHPDYKMLDKPPTPVEKIEEAVEIAKKEGIEYVYAGNVWGHRYENTYCPNCGELLIEREGFYVYNINLVRDNPPKCPNCGYAQNIIL | not soluble |
| MGSDKIHHHHHHMKDNYDAPESMLTGRVMYNGEALQLRGNEAVQLQLYQHGYAKHDPINVYVNQDGMYSANLFDGEYQMITKSGNGPWTSEGRDTINVTVAGNTVQDVEVTPYYLVRDAQMTLEGNKVNASFKVEKVAGGGIDRVFFMLSTTQFVNDAEHNVDRYDETDNLDAYDETGKLYTFATRDYTDNSMFQTALKRGTLFGRICIWPKGSDQGIYSKVIRLK | not soluble |
| MSLNFHDVRFPPSLSFGSLGGPQRRTDVVTLANGYEERNTPWAHSRRVYDAGLGMRSIDDVQALTGFFEARMGQMYGFRWKDWADFKSCASSVGVTFEDQSLGFGDGVRTDYQLVKTYSSGGHSYVRPITKPVAGTVRVGIEQDALQEGSDYEVDLSTGIIRFAHAPDPEMQVSAGFEFDVPVRFDTDRILVSVASFQAGQVPDVPVIEVRVEGHHHHHH | soluble |
| MTMPVNTIMGLFAKSPIKPLQRHVVCVNECCSHLINFFEVCNKGDWEKAGEIRAQISHLEKEADVLKREIRLKLPRGLFMPVDRSDMLELLTQQDKLANLAKDIAGRVYGRQLVIPEPLQENFIAYVRRCLDAANQAQNVINELDELLETGFKGREVTLVAEMIHQLDVIEDDTDSMQIRLRQQLMAIESKMNPIDVMFLYKILEWVGGIADQAQRVGARLELMLSRS | not soluble |
| MGHHHHHHSHMLSSNGASKVANSEAMILDKNLESVNSPIEKSSVNYEPSNPSEKGSKKINLSSDQNKSVSESNNDDVMLISVESPNLTTPTTSNPTDTRKITSGNSSNSPNAEVMAVQKKLDSIIDLTKEGLSNCNTESPVSPLESHSKAASNSKETTPLAQNAVQVPESFEHLPPLPEPPAPLPELVDKTRDTLPPQKPELKVKRVFRPNGIALTWNITKINPKCAPVESYHLFLCHENSNNKLIWKKIGEIKALPLPMACTLSQFLASNRYYFTVQSKDIFGRYGPFCDIKSIPGFSENLT | soluble |
| MLIERIYDEDLAQASYFIGCQAHNTAVVVDPRRDIAVYLDMAKKNGMEIVGVTETHIHADYLSGTRELAAATNATMYVSGEGGADWQYEFDAERICDGSEIRLGNLVLTAVHTPGHTPEHLSFLLKDGAFADEPGFMLTGDFVFAGDLGRPDLLDEAAGGVDTRFEGARQMFKSLKEKFLTLPDHIQIFPGHGSGSACGKALGSVPSTTLGYERQFAWWGKYLEADDEQGFIDELLEGQPDAPAYFGRMKRQNRQGPAIMGARELLPQLEASDLHDVIVVDTRSADEVHQGTVAGAVNIPAGNSMAKFGSWTVDPEKDSRALVLLAASQIGAMEMWDHMVRVGIDNVAGFITNFDGVDLVAPQTVSPDQLDELEYDLLLDVRNRSEVEEGYIPGALHINGASVLWNLEKLPRDGKIVSYCKSGTRSSIAASTLRNAGFDVVELQGSYDNWVRHNAQLEHHHHHH | not soluble |
| MGSDKIHHHHHHMHGNADVKFGNESVFDLARGSSTNDELLNICMIRSGFKKFEEEKEIQNTDGFFIADTSVYIKLGNRLGYLTKDRLLASKSVYNELSERTKLTQMGKEIIVFYLGMYSYRHLHKSPPVSEYNKSGDIPLIEETRKIKENIPEKVTLITADRQLKQRARTLGVNVIFLNTLKSDSGNMSELLLCASNRREYMEKYDYARRDLTITINDKEVIKIESDPTKEGFSRIKTLNKEFNYAKLIEKLYEMI | not soluble |
| GMEAKLSSIEIPVGQDELSGTLLTPTGMPGVLFVHGWGGSQHHSLVRAREAVGLGCICMTFDLRGHEGYASMRQSVTRAQNLDDIKAAYDQLASLPYVDAHSIAVVGLSYGGYLSALLTRERPVEWLALRSPALYKDAHWDQPKVSLNADPDLMDYRRRALAPGDNLALAACAQYKGDVLLVEAENDVIVPHPVMRNYADAFTNARSLTSRVIAGADHALSVKEHQQEYTRALIDWLTEMVVGRRIALAKEVVAARKQLLKEQQGDAVSLPGQGSREFRGDIRAVEKTSA | soluble |
| MGSDKIHHHHHHMIGNRNSTSLEIAMTEIDDITGFIPQPGPIALVLGATGGVGGAVARALAGRGYHVRALHRDAARMAAKQKERQPALEPVLEWVQGDAMNRDDVIYAAKDASVILHGVNPPGYRNWGTLVLPMIDNTIAAARASGACILMPGTIYNYGPDAFPLLNEESPQHPRTVKGEIRVELERRLEQAAGEGVRVILVRAGDFFGPEAGNNWFAQGLITPGKPVTQVNLPGKPGVSHSWAYLPDVAETFIRLLERVPDMPAFARFHMQGHVDTDGYAMAQAIQRVSGSDSVRFKRFAWWMVPLLSPILPVFRELLEMRYLWREPIALDNRRLVEVLGEEPRTRLDVAVATTLKSLKCLQTSAVHPDGSRSMASETAPQ | not soluble |

— the DeepSol protein solubility set
